Experimental data from patent publication US20080096219A1.

Biological target: horseradish peroxidase-conjugated IgG (Wako Pure Chemical Industries, Ltd.)
Assay: protein A immobilized on a platinum microelectrode (-100 mV), incubated with 0.5 mg/ml HRP-conjugated IgG, peroxidase luminescence read by luminometer

Q: Which amount of luminescence does the source give for polyhistidine-fused protein A here?
A: 1.4e+10 cps
